In test [1] the target is JetB (E. coli GF4-3), as subunit of the JetABC complex (E. coli strain GF4-3). The test is described as follows: cryo-EM structure.
In test [2] the target is JetC (E. coli GF4-3), as subunit of the JetABC complex (E. coli strain GF4-3). The test can be described thus: cryo-EM structure.

Broadly, the stoichiometry N is the number of molecules, sites or subunits per partner or assembly. In turn, “JetB (E. coli GF4-3), as subunit of the JetABC complex (natural protein)” registered a stoichiometry N in test [1] of 2.

In test [2], “JetC (E. coli GF4-3), as subunit of the JetABC complex (natural protein)” showed a stoichiometry N of 2.

The record behind these values is publication doi:10.1101/2022.10.04.510915.
